± gives the uncertainty stated by the source.

Consider 99 substances from the supplement of paper PMC12042874.

A short description of the data set: amyloid nucleation score (Sup35N fusion, yeast selection) (log enrichment); library NNK3; higher = more nucleation; inactive = no reads after selection. Put shortly:
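After 24 hours of induction with 100 μM copper sulfate, psi-negative yeast expressing peptides of 20 random codons fused to Sup35N were grown for 7 days at 30°C on medium lacking adenine and uracil. Input and output plasmid inserts were sequenced with Illumina, and sequences with under 100 input reads were discarded. Scores for nucleation are the DiMSum log enrichment of output over input reads, centred on the mode score of non-aggregating sequences.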
On to VHYIVNYRGRILV, for which the amyloid nucleation score result is “inactive”.

As to VHYYEE, the amyloid nucleation score result is “inactive”.

As for VIGQGLCWGFSTVDIP, the amyloid nucleation score entry was “inactive”.

Turning to VIGVNIWSCL, the amyloid nucleation score turned out to be 1.29 ± 0.1.

As for VILQMT, the amyloid nucleation score result was “inactive”.

On to VIMFVAIGWLLR, for which the amyloid nucleation score entry was “inactive”.

On to VINRHVCGRVGMLTGFDGLT, for which the amyloid nucleation score result was “inactive”.

For VINRST, the amyloid nucleation score was determined as 0.979 ± 0.11.

As to VIQGLYSSFMHVYG, the amyloid nucleation score result was “inactive”.

With VIRRHWR, the amyloid nucleation score result is “inactive”.

With VISCCP, the amyloid nucleation score entry is “inactive”.

For the substance VISISRFDGWQRAHVKVRVS, the amyloid nucleation score entry was “inactive”.

Consider VISVGLVIKRLYSMWYLAAG, for which the amyloid nucleation score entry is “inactive”.

Substance VITADLRSMIWDVPKNVY showed an amyloid nucleation score of 0.92 ± 0.16.

VITVSVTHNNANFFQMTDGM returned an amyloid nucleation score of 2.88 ± 0.055.

In the case of VIVICFIFLMNVIPIQACWT, the amyloid nucleation score entry is “inactive”.

Regarding VIVRDSLISVSSTIRDFVCG, the amyloid nucleation score entry was “inactive”.

As for VIWGTPQFSFAEVREFDLVH, the amyloid nucleation score result is “inactive”.

On to VKGQWR, for which the amyloid nucleation score result was “inactive”.

In the case of VKHQVDCLIVVI, the amyloid nucleation score entry was “inactive”.

Turning to VKKSYWAERGFFGA, the amyloid nucleation score entry is “inactive”.

Regarding VKMTGDVVTLHLRDLINCWA, the amyloid nucleation score entry is “inactive”.

With VKTYFTSLRFVISMGWLNNQ, the amyloid nucleation score entry is “inactive”.

On to VKVLWFSDCSSLYCHSVDGP, for which the amyloid nucleation score result is “inactive”.

In the case of VKVMMT, the amyloid nucleation score result was “inactive”.

Consider VLADCWRSGIHWIGHTYLIN, for which the amyloid nucleation score result is “inactive”.

Consider VLASSKGICPMPSTSEFSFH, for which the amyloid nucleation score result was “inactive”.

VLCCANKYSFTNQQSGSASE registered an amyloid nucleation score of 0.952 ± 0.1.

With VLDLTKYSFLTI, the amyloid nucleation score result was “inactive”.

On to VLFAKRLDLTCVFLFIGRVW, for which the amyloid nucleation score entry is “inactive”.

On to VLFFSAYWMFQKVGVLVPSK, for which the amyloid nucleation score entry was “inactive”.

The substance VLFMMMERHSRSRSRGSLQ displayed an amyloid nucleation score of 0.858 ± 0.23.

In turn, VLGCFVVKGSKFVDLPEFHR yielded an amyloid nucleation score of 1.3 ± 0.085.

Consider VLGDSNFF, for which the amyloid nucleation score entry is “inactive”.

With VLGMNEPCSFW, the amyloid nucleation score entry was “inactive”.

For the substance VLIMYKSGRYVIGSLVLMCL, the amyloid nucleation score entry is “inactive”.

With VLLFI, the amyloid nucleation score entry is “inactive”.

For the substance VLLLFWAPVNAGTVWYLWNR, the amyloid nucleation score result is “inactive”.

As for VLNFIMAWYNFRFVWGSMGV, the amyloid nucleation score entry was “inactive”.

For the substance VLRKARVVIRSYSMEVRFRS, the amyloid nucleation score entry was “inactive”.

For VLRSANCCCGFD, the amyloid nucleation score result is “inactive”.

For the substance VLSCVAIRSYILHKVSVGIC, the amyloid nucleation score result was “inactive”.

Consider VLSVLFFLLLSPPIRFQVEG, for which the amyloid nucleation score entry was “inactive”.

As for VLTVVAKAWFPVFRPTWFLL, the amyloid nucleation score result is “inactive”.

Substance VLVCSAMNGFSFHNLSH registered an amyloid nucleation score of 0.872 ± 0.15.

As for VLVESDLSVIATVSGLLCAR, the amyloid nucleation score entry was “inactive”.

VLVVCSLSAC: the amyloid nucleation score result was “inactive”.

Take VLWDGF: the amyloid nucleation score result was “inactive”.

VLYSYRYSYSVGLCTEMHRF: the amyloid nucleation score result is “inactive”.

For the substance VMCFYRLLNVIQWTTANVFG, the amyloid nucleation score result is “inactive”.

Substance VMDIVHPSSDAVVGRA came in with an amyloid nucleation score of -0.125 ± 0.53.

The substance VMFIVNLY had an amyloid nucleation score of 3.07 ± 0.08.

Regarding VMIFSCYSAYYPNLISHSRW, the amyloid nucleation score result was “inactive”.

Regarding VMKPSNVVQGSMNPESSLGM, the amyloid nucleation score result is “inactive”.

For VMLRMDARQWHSLATVTVVP, the amyloid nucleation score result is “inactive”.

Regarding VMTVVRKSSSSVVAISWISE, the amyloid nucleation score was 0.392 ± 0.54.

In the case of VMVCFG, the amyloid nucleation score entry was “inactive”.

With VMYHGMITLLVMLKTEQRKK, the amyloid nucleation score result was “inactive”.

Consider VNEERGNYVWSCIMRYHLWD, for which the amyloid nucleation score entry is “inactive”.

As to VNEIF, the amyloid nucleation score is 0.432 ± 0.23.

Take VNENLTGFIGV: the amyloid nucleation score entry is “inactive”.

VNESMNDIANRSDEGYFGCA: the amyloid nucleation score entry is “inactive”.

In the case of VNGCIRCCTPVSKYISVDLA, the amyloid nucleation score result was “inactive”.

Consider VNIIF, for which the amyloid nucleation score entry was “inactive”.

Turning to VNLVLIISNPR, the amyloid nucleation score entry was “inactive”.

In the case of VNMMRDVVIDKVLFLSSHVA, the amyloid nucleation score was 1.48 ± 0.12.

Turning to VNNKSFCRWAGANNLLQVMH, the amyloid nucleation score result is “inactive”.

With VNNSRGSAYSEVRSILRRYA, the amyloid nucleation score entry is “inactive”.

For VNQVVM, the amyloid nucleation score result was “inactive”.

For the substance VNRNVLTVSGCCLVYAPLC, the amyloid nucleation score is 2.26 ± 0.06.

For the substance VNSRCI, the amyloid nucleation score entry was “inactive”.

For the substance VNTFGLDHEITSFMMCGETG, the amyloid nucleation score result was “inactive”.

Substance VNVRHTGSLTFFF registered an amyloid nucleation score of 1.01 ± 0.12.

For VNVVEFTRFRAW, the amyloid nucleation score stood at 0.585 ± 0.35.

Turning to VNYSLLRVNMFKYGSSYPIP, the amyloid nucleation score entry is “inactive”.

On to VPFDGLFWYCRCR, for which the amyloid nucleation score result was “inactive”.

Turning to VPGQYWFIDGMTFGNDDTRS, the amyloid nucleation score entry is “inactive”.

With VPGRVMVLRIWIYRNVQKRG, the amyloid nucleation score result was “inactive”.

Take VPKPD: the amyloid nucleation score result is “inactive”.

For VPLMQGD, the amyloid nucleation score was 3.16 ± 0.056.

Turning to VPRMSALRESFHKDNS, the amyloid nucleation score entry was “inactive”.

Consider VPTVRLTSSSFL, for which the amyloid nucleation score entry was “inactive”.

Consider VPVVGISYSYLILWFYLYVG, for which the amyloid nucleation score entry was “inactive”.

Turning to VPWGIVSFA, the amyloid nucleation score result was “inactive”.

VPWSLCDD gave an amyloid nucleation score of 0.508 ± 0.12.

In the case of VQFFNDRSLVDSQIGRLLLP, the amyloid nucleation score result is “inactive”.

Turning to VQLGAD, the amyloid nucleation score entry was “inactive”.

In the case of VQLLDLKILIIDSVDSKYVC, the amyloid nucleation score entry is “inactive”.

Turning to VQRISTIMINV, the amyloid nucleation score entry is “inactive”.

Turning to VQRSYWICQLPAGVSWSGI, the amyloid nucleation score result is “inactive”.

As for VQSKMCVKYFWGRHTRHQLG, the amyloid nucleation score entry is “inactive”.

For VQTSHHNAVEICCMCLCQML, the amyloid nucleation score amounted to 3.02 ± 0.065.

As to VQWCQDAFVIV, the amyloid nucleation score result was “inactive”.

VQYFPISGDARGRQLQRI: the amyloid nucleation score result was “inactive”.

VRAGTIYRGVYHFCLFCMGE returned an amyloid nucleation score of 0.828 ± 0.15.

Take VRCKVMSSAAATVFFVSGAV: the amyloid nucleation score entry was “inactive”.

As for VRDCTTDTQWERWVETLSPS, the amyloid nucleation score entry is “inactive”.

As to VRFVLDRIACLVGVYIYFWG, the amyloid nucleation score result is “inactive”.

VRLWFSGRTFSVKVVTHAPC: the amyloid nucleation score amounted to 1.41 ± 0.098.
